Measurements as given in publication PMC9234238.

Experiments:
DLL4-Fc = DLL4-Fc (UniProt Q9JI71); experiment: flow cytometry on cells (cell-based binding assay); conditions: read off a plot; for percent of parent: HEK293T cells overexpressing N1 with Lfng cDNA, N1+LFNG set to 100%, parent: est. 100; for response: HEK293T cells overexpressing N1 without Lfng cDNA, MFI normalised to N1+LFNG = 100%, parent: est. 79
DLL1-Fc = DLL1-Fc (UniProt Q61483); experiment: flow cytometry on cells (cell-based binding assay); conditions: HEK293T cells overexpressing N1 with Lfng cDNA; N1+LFNG set to 100%; parent: est. 100; read off a plot

Row | Substance | percent of parent (DLL4-Fc) | percent of parent (DLL1-Fc) | response (DLL4-Fc)
1 | full-length mouse NOTCH1 (WT N1), coexpressed with LFNG (from UniProt Q01705) N1-6V (Thr of the O-fucose site in EGF6 changed to Val; residue number not printed) | 100 MFI(%) | 92 MFI(%) | –
2 | full-length mouse NOTCH1 (WT N1), expressed without LFNG (from UniProt Q01705) N1-6V (Thr of the O-fucose site in EGF6 changed to Val; residue number not printed) | – | – | 75 MFI(%)
3 | full-length mouse NOTCH1 (WT N1), coexpressed with LFNG (from UniProt Q01705) N1-26V (Thr of the O-fucose site in EGF26 changed to Val; residue number not printed) | 100 MFI(%) | 89 MFI(%) | –
4 | full-length mouse NOTCH1 (WT N1), expressed without LFNG (from UniProt Q01705) N1-26V (Thr of the O-fucose site in EGF26 changed to Val; residue number not printed) | – | – | 85 MFI(%)
5 | full-length mouse NOTCH1 (WT N1), expressed without LFNG (from UniProt Q01705) N1-16V (Thr of the O-fucose site in EGF16 changed to Val; residue number not printed) | – | – | 79 MFI(%)

Next, values leading:

Row | percent of parent (DLL4-Fc) | percent of parent (DLL1-Fc) | response (DLL4-Fc) | Substance
6 | 92 MFI(%) | 71 MFI(%) | – | full-length mouse NOTCH1 (WT N1), coexpressed with LFNG (from UniProt Q01705) N1-27V (Thr of the O-fucose site in EGF27 changed to Val; residue number not printed)
7 | 89 MFI(%) | 90 MFI(%) | – | full-length mouse NOTCH1 (WT N1), coexpressed with LFNG (from UniProt Q01705) N1-16V (Thr of the O-fucose site in EGF16 changed to Val; residue number not printed)
8 | – | – | 82 MFI(%) | full-length mouse NOTCH1 (WT N1), expressed without LFNG (from UniProt Q01705) N1-27V (Thr of the O-fucose site in EGF27 changed to Val; residue number not printed)
